Test results from paper PMC8657457.

Target: CyOFP1
Experiment: SEC; FPLC on Superdex 75 10/300 GL; elution in 20 mM Tris-HCl (pH 7.80), 200 mM NaCl; oligomeric state from the elution volume against molecular weight standards

stoichiometry N: 2
Substance: CyOFP1
